The values below come from article doi:10.1101/2020.11.19.389494, “The structural mechanism underlying the antithetic effect of homologous RND1 and RhoD GTPases in plexin regulation” (bioRxiv, 2020).

The target in the experiment is T1, human RhoD (residues 8-194) with the Q75L mutation, bound to GMP-PNP (human, UniProt O00212 8-194, Q75L).
T1 construct: Loaded with the GTP analogue GMP-PNP and Mg2+ before crystallisation; His6 tag removed with human rhinovirus 3C protease; also called GMP-PNP-loaded RhoD; source: E. coli BL21 (DE3), purified (HisTrap, Resource Q, Superdex 75); not shown: His6, N-terminal, cleaved
T1 sequence (looked up): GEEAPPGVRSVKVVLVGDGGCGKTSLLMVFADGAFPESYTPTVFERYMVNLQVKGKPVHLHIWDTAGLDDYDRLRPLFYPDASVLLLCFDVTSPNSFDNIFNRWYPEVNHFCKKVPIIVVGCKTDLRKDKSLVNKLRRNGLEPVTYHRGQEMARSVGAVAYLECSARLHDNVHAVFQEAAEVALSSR
In words: crystal structure; Plexin B2 (1274-1842) and GMP-PNP-loaded RhoD mixed at 1:1 molar ratio, 6 mg/mL total; crystals grown over a month at 20 °C in 0.2 M MgCl2, 22 % PEG3350, 100 mM MIB pH 6.8; plexin B2 degraded to the RBD in the drops; 3.1 Å, molecular replacement. As to conditions: both partners purified.

B1: mouse plexin B2 Rho GTPase binding domain (RBD) (domain or fragment, UniProt B2RXS4 1463-1565, looked up)
chain: EYAPLTVSVIVQDEGIDAIPVKVLNCDTISQVKEKIIDQVYRTQPCSCWPKPDSVVLEWRPGSTAQILSDLDLTSQREGRWKRINTLMHYNVRDGATLILSKV
notes: Plexin B2, mouse; Expressed as the intracellular region without the juxtamembrane region (residues 1274-1842); it degraded in the crystallization drops and the crystal held only the RBD, of which residues 1463-1509 and 1510-1565 are described in the model; In the crystal two RBD chains form a domain-swapped dimer (swap between residues 1509 and 1510), which the authors regard as a crystallization …
For B1, the binding result is “binds”.
